Consider 4 molecules from paper PMC11806408, “Prodomain processing controls BMP‐10 bioactivity and targeting to fibrillin‐1 in latent conformation” (The FASEB Journal, 2025).

Sequences and labels used below:
B1: BMPRII ectodomain, human IgG1‐Fc fusion (R&D Systems #811‐BR‐100/CF) (Fc fusion, UniProt Q13873 27-150, looked up)
chain: SQNQERLCAFKDPYQQDLGIGESRISHENGTILCSKGSTCYGLWEKSKGDINLVKQGCWSHIGDPQECHYEECVVTTTPPSIQNGTYRFCCCSTDLCNVNFTENFPPPDTTPLSPPHSFNRDET
notes: Bone morphogenetic protein receptor type II (BMPRII), ectodomain; 'human' in the sentence may qualify the IgG1 Fc only; also called BMP type II receptor; source: bought: R&D Systems (#811‐BR‐100/CF)
B2: processed BMP‐10 CPLX (tag‐free, HEK293) (complex, human)
chain 1: SPIMNLEQSPLEEDMSLFGDVFSEQDGVDFNTLLQSMKDEFLKTLNLSDIPTQDSAKVDPPEYMLELYNKFATDRTSMPSANIIRSFKNEDLFSQPVSFNGLRKYPLLFNVSIPHHEEVIMAELRLYTLVQRDRMIYDGVDRKITIFEVLESKGDNEGERNMLVLVSGEIYGTNSEWETFDVTDAIRRWQKSGSSTHQLEVHIESKHDEAEDASSGRLEIDTSAQNKHNPLLIVFSDDQSSDKERKEELNEMISHEQLPELDNLGLDSFSSGPGEEALLQMRSNIIYDSTARIRR
chain 2: NAKGNYCKRTPLYIDFKEIGWDSWIIAPPGYEAYECRGVCNYPLAEHLTPTKHAIIQALVHLKNSQKASKACCVPTKLEPISILYLDKGVVTYKFKYEGMAVSECGCR
modifications: N‐glycosylation
notes: Bone morphogenetic protein 10, human, prodomain (PD) up to the endogenous PPC cleavage site RIRR; calculated molecular weight without glycans 34.6 kDa; secreted through the BM40 signal peptide of the vector; Bone morphogenetic protein 10, human, growth factor (GF) released by PPC cleavage after RIRR; calculated molecular weight of the monomer 12.2 kDa; The SPR methods say only 'processed BMP‐10 …

Series [1] concerns the target B2. Briefly: SPR; receptor ectodomains immobilised at 500 or 800 RUs on a CM5 chip by amine coupling; analytes 0 to 80 nM, 1:2 serial dilutions, 1× HBS‐EP; 1:1 model with mass transfer; apparent KD = kd/ka; three independent experiments. The settings on record: both partners purified. For orientation: In SPR one partner is held on a chip, and binding of the other changes the refractive index at the surface.

In series [2] the target is T1, ENG ectodomain (R&D Systems #1097‐EN‐025/CF) (human, UniProt P17813 26-586).
T1 construct: Endoglin (ENG), ectodomain; The methods read 'the human IgG1‐Fc‐fusion ectodomains of BMPRII, ALK‐1 as well as ENG'; also called endoglin; co‐receptor ENG; source: bought: R&D Systems (#1097‐EN‐025/CF); not shown: Fc (human IgG1)
T1 sequence (looked up): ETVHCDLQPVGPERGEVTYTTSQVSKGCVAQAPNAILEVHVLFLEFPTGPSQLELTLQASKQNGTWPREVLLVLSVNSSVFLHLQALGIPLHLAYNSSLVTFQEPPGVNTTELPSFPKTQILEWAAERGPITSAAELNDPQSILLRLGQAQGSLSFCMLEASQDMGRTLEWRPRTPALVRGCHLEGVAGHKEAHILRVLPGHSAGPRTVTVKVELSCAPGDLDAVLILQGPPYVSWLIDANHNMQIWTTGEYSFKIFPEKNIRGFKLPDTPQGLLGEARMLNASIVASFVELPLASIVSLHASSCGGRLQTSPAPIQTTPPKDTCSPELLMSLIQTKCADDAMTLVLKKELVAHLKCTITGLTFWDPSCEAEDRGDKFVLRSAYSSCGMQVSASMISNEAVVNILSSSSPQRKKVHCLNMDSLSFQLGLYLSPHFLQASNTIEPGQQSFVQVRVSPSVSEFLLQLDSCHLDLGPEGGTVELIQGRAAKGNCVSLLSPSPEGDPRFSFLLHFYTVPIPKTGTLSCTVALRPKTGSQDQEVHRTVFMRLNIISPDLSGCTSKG
The series is described as above. The settings on record: both partners purified.

The target in a further series is T2, BMP‐10 PD (E. coli) (human, UniProt O95393 22-316).
T2 construct: also called BMP‐10 prodomain; E. coli‐derived BMP‐10 PD; source: E. coli BL21‐CodonPlus, purified (Ni‐NTA)
T2 sequence (looked up): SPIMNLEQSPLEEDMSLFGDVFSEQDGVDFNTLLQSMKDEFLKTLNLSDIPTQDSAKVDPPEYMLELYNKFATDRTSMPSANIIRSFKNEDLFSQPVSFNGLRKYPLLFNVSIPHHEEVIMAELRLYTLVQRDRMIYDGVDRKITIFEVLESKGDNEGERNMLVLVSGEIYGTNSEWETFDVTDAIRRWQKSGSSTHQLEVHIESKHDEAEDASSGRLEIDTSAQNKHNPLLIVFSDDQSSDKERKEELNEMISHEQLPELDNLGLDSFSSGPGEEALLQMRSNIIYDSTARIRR
Briefly: SPR; PDs of BMP‐9, BMP‐10 and N‐10/C‐9 fusion PD immobilised at 450 RUs on a CM5 chip by amine coupling; BMP‐10 GF 0 to 80 nM, 1:2 serial dilutions, 1× HBS‐EP; 1:1 model with mass transfer; apparent KD = kd/ka. The settings on record: both partners purified.

The target in another series is T3, BMP‐9 PD (E. coli) (human, UniProt Q9UK05 23-319).
T3 construct: also called BMP‐9 prodomain; source: E. coli BL21‐CodonPlus, purified (Ni‐NTA)
T3 sequence (looked up): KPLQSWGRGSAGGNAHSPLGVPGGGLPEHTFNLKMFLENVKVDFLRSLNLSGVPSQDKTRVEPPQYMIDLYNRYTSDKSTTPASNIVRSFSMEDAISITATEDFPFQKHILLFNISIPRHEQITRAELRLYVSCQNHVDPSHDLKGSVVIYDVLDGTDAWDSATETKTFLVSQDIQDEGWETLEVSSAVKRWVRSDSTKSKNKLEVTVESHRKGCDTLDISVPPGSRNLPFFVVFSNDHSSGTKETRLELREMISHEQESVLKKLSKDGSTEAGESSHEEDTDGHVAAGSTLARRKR
The description is as above. The settings on record: both partners purified.

The target in series [3] is B1. Briefly: SPR; receptor ectodomains immobilised at 500 or 800 RUs on a CM5 chip by amine coupling; analytes 0 to 80 nM, 1:2 serial dilutions, 1× HBS‐EP; 1:1 model with mass transfer; apparent KD = kd/ka; three independent experiments. To be noted: both partners purified.
Series [4] concerns the target T1, ENG ectodomain (R&D Systems …). The description is as above. The settings on record: both partners purified. The source holds these as a separate data set.
Series [5] concerns the molecule itself. Briefly: AUC; sedimentation velocity of elution fractions after SEC/MALS (S200 Increase, 1× PBS), 54 000 rpm, 280 nm, c(s) fit; PD dimer.

For the molecule B1, in series [1], the Kd is 0.8 ± 0.1 nM, the koff was 0.00079 s⁻¹ and the kon was determined as 940000 M⁻¹ s⁻¹.

Regarding B2, the binding result in series [2] is on record as “binds”.

B3: BMP‐10 GF (R&D Systems #2926‐BP‐025/CF) (ligand, human, UniProt O95393 317-424, looked up)
chain: NAKGNYCKRTPLYIDFKEIGWDSWIIAPPGYEAYECRGVCNYPLAEHLTPTKHAIIQALVHLKNSQKASKACCVPTKLEPISILYLDKGVVTYKFKYEGMAVSECGCR
notes: Bone morphogenetic protein 10, human, growth factor (GF) moiety that follows the PPC cleavage site RIRR; calculated molecular weight of the monomer 12.2 kDa, dimer 24.4 kDa; Disulfide-linked GF dimer; also called BMP‐10 growth factor; BMP‐10 GF dimer; source: bought: R&D Systems (#2926‐BP‐025/CF); called commercially available HEK293‐derived
On to B3, for which the Kd in the series with BMP‐10 PD (E. coli) was 5.2 ± 0.7 nM; in the series with BMP‐9 PD (E. coli), 10.4 ± 2.5 nM; in series [3], 2.6 ± 0.6 nM; in series [4], 16.3 ± 2.9 nM. Further, the off-rate (koff) in the series with BMP‐10 PD (E. coli) amounted to 0.0024 s⁻¹; with BMP‐9 PD (E. coli), 0.0024 s⁻¹; in series [3] it was 0.0017 s⁻¹; in series [4] it was 0.008 s⁻¹. The kon with BMP‐10 PD (E. coli) is 500000 M⁻¹ s⁻¹; with BMP‐9 PD (E. coli), 230000 M⁻¹ s⁻¹; in series [3], 690000 M⁻¹ s⁻¹; in series [4], 490000 M⁻¹ s⁻¹.

B4: BMP‐10 PD (HEK293, from the processed BMP‐10 CPLX) (domain or fragment, human)
chain: SPIMNLEQSPLEEDMSLFGDVFSEQDGVDFNTLLQSMKDEFLKTLNLSDIPTQDSAKVDPPEYMLELYNKFATDRTSMPSANIIRSFKNEDLFSQPVSFNGLRKYPLLFNVSIPHHEEVIMAELRLYTLVQRDRMIYDGVDRKITIFEVLESKGDNEGERNMLVLVSGEIYGTNSEWETFDVTDAIRRWQKSGSSTHQLEVHIESKHDEAEDASSGRLEIDTSAQNKHNPLLIVFSDDQSSDKERKEELNEMISHEQLPELDNLGLDSFSSGPGEEALLQMRSNIIYDSTARIRR
modifications: N‐glycosylation
notes: Bone morphogenetic protein 10, human, prodomain (PD) up to the endogenous PPC cleavage site RIRR; band at 45 kDa, calculated molecular weight without glycans 34.6 kDa; The methods of SEC/MALS and AUC say only 'two fractions of BMP‐10'; also called separated BMP‐10 PD
As for B4, in series [5], the “stoichiometry N” value worked out at 2.

For orientation: koff means the first-order rate constant of dissociation. As usually defined, the kon is the second-order rate constant of association. For orientation: stoichiometry N means a count of units in the complex or per binding partner.
